Measurements as given in patent US20240309087A1 (SHANGHAI JUNSHI BIOSCIENCES, published 2024).
Where a chain is given by its changes, count along the chain named.

T1: human CD112R on Jurkat CD112R effector cells (human, UniProt Q6DKI7 1-326)
T1 sequence (looked up): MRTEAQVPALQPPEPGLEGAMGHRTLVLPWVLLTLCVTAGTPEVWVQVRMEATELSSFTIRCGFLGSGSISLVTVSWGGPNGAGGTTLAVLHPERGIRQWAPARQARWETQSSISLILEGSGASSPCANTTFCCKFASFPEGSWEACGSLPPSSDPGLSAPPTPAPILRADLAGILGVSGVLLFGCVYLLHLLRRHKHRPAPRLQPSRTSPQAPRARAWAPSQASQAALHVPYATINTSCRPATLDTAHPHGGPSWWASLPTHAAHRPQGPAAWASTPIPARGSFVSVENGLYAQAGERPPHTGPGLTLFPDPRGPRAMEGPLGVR

T2: hCD112R mFC recombinant protein (human; murine, UniProt Q6DKI7 41-160)
T2 construct: range 41-160; expressed in 293E cells; also called hCD112R ECD mFC; hCD112R-ECD-mFC; not shown: murine IgG2a Fc domain (MX2-mFc vector)
T2 sequence (looked up): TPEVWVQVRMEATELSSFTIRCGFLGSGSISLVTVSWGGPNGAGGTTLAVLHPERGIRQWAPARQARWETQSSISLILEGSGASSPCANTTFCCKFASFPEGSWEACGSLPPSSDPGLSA

B1: Hu22 (antibody, IgG4, V domains shown)
VH: EVQLVESGGGLVKPGGSLRLSCAASGFTFSSYHMSWVRQAPGKGLELVSAISRDGDSTYYPDTVKGRFTISRDDAENSLYLQMNSLRAEDTAVYYCSRHEDYFGFAMDSWGQGTLVTVSS
VL: DIVMTQSPDSLAVSLGERATINCKASQSVSNDVAWYQQKPGQPPKLLIYYVSHRFTGVPDRFSGSGSGTDFTLTISSLQAEDVAVYFCHQAYRSPWTFGQGTKLEIK
notes: humanized IgG4
B2: Hu35 (antibody, IgG4, V domains shown)
VH: B1 VH with K13Q, S49A
VL: DIQMTQSPSSLSASVGDRVTITCKASQSVSNDVAWYQQKPGKAPKLLIYYVSNRFTGVPSRFSGSGSGTDFTLTISSLQPEDFATYFCQQAYRSPWTFGQGTKLEIK
notes: humanized IgG4
B3: Hu23 (antibody, IgG4, V domains shown)
VH: B1 VH
VL: B2 VL
notes: humanized IgG4
B4: Hu29 (antibody, IgG4, V domains shown)
VH: B1 VH with K13Q, S49A, D74N, E76K
VL: B2 VL
notes: humanized IgG4
B5: Hu17 (antibody, IgG4, V domains shown)
VH: B1 VH with D74N, E76K
VL: B2 VL
notes: humanized IgG4
B6: Hu28 (antibody, IgG4, V domains shown)
VH: B1 VH with K13Q, S49A, D74N, E76K
VL: B1 VL
notes: humanized IgG4
B7: Hu6 (antibody, IgG4, V domains shown)
VH: EVQLVESGGGLVQPGGSLRLSCAASGFTFSSYHMSWVRQAPGKGLELVAAINSNDINTYYLDTVKGRFTISRDIAKNSLYLQMNSLRAEDTAVYYCARHEDYYGFAMDYWGQGTLVTVSS
VL: EIVMTQSPPTLSLSPGERVTLSCKASQSVSNDVAWYQQKPGQAPRLLIYYVSNRFTGIPARFSGSGSGTDFTLTISSLQPEDFAVYFCQQAYRSPWTFGQGTKLEIK
notes: humanized IgG4; also called Hu-06
B8: Hu30 (antibody, IgG4, V domains shown)
VH: B1 VH with K13Q, S49A, D74N, E76K
VL: B7 VL
notes: humanized IgG4
B9: Hu24 (antibody, IgG4, V domains shown)
VH: B1 VH
VL: B7 VL
notes: humanized IgG4
B10: Hu36 (antibody, IgG4, V domains shown)
VH: B1 VH with K13Q, S49A
VL: B7 VL
notes: humanized IgG4
B11: Hu60 (antibody, IgG4, V domains shown)
VH: B7 VH with V37I, D55G, I74N
VL: B7 VL
notes: humanized IgG4
B12: Hu54 (antibody, IgG4, V domains shown)
VH: B7 VH with Q13K, A49S, D55G, I74N
VL: B7 VL
notes: humanized IgG4
B13: Hu27 (antibody, IgG4, V domains shown)
VH: B1 VH with K13Q, S49A, D74N, E76K
VL: B7 VL with Q38E, N53H, F87Y, Q89H
notes: humanized IgG4
B14: Hu57 (antibody, IgG4, V domains shown)
VH: B7 VH with V37I, D55G, I74N
VL: B7 VL with Q38E, N53H, F87Y, Q89H
notes: humanized IgG4
B15: Hu9 (antibody, IgG4, V domains shown)
VH: B7 VH with Q13K, A49S
VL: B7 VL with Q38E, N53H, F87Y, Q89H
notes: humanized IgG4; also called Hu-09
B16: Hu21 (antibody, IgG4, V domains shown)
VH: B1 VH
VL: B7 VL with Q38E, N53H, F87Y, Q89H
notes: humanized IgG4
B17: Hu15 (antibody, IgG4, V domains shown)
VH: B1 VH with D74N, E76K
VL: B7 VL with Q38E, N53H, F87Y, Q89H
notes: humanized IgG4
B18: Hu12 (antibody, IgG4, V domains shown)
VH: B7 VH with Q13K, A49S
VL: B7 VL
notes: humanized IgG4

target: T1, human CD112R on Jurkat CD112R effector …; assay: cell-based or functional assay

Row | Binder | EC50, CD112R/CD112 reporter | Relative activity (%), EC50 COM701/EC50 antibody
1 | B1 | 0.0267 µg/mL | 191%
2 | B2 | 0.031 µg/mL | 184%
3 | B3 | 0.0374 µg/mL | 217%
4 | B4 | 0.0272 µg/mL | 230%
5 | B5 | 0.0228 µg/mL | 241%
6 | B6 | 0.0306 µg/mL | 232%
7 | B7 | 0.0529 µg/mL | 128%
8 | B8 | 0.034 µg/mL | 184%
9 | B9 | 0.0485 µg/mL | 167%
10 | B10 | 0.0356 µg/mL | 160%
11 | B11 | 0.0225 µg/mL | 261%
12 | B12 | 0.0241 µg/mL | 300%
13 | B13 | 0.0328 µg/mL | 217%
14 | B14 | 1.33 µg/mL | 4.5%
15 | B15 | 0.0385 µg/mL | 195%
16 | B16 | 0.0285 µg/mL | 179%
17 | B17 | 0.0237 µg/mL | 209%
18 | B18 | 0.0542 µg/mL | 144%

target: T2, hCD112R mFC recombinant protein; assay: ELISA, coated hCD112R-ECD-mFC
Method in brief: (§1)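 Plates coated with hCD112R-ECD-mFC at 1.5 μg/mL; humanized antibodies titrated from 1 μg/mL, 2.5-fold, 12 points. Bound antibody detected with HRP anti-human IgG Fc and TMB, read at 420/620 nm; EC50 from 4PL fit, COM701 and anti-KLH hu-IgG4 as controls.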

Row | Binder | EC50
19 | B1 | 0.00425 µg/mL
20 | B2 | 0.00439 µg/mL
21 | B3 | 0.00436 µg/mL
22 | B4 | 0.00413 µg/mL
23 | B5 | 0.00418 µg/mL
24 | B6 | 0.00479 µg/mL
25 | B7 | 0.00271 µg/mL
26 | B8 | 0.00396 µg/mL
27 | B9 | 0.00429 µg/mL
28 | B10 | 0.0042 µg/mL
29 | B11 | 0.00602 µg/mL
30 | B12 | 0.00631 µg/mL
31 | B13 | 0.00442 µg/mL
32 | B14 | 0.00535 µg/mL
33 | B15 | 0.00345 µg/mL
34 | B16 | 0.0029 µg/mL
35 | B17 | 0.00451 µg/mL
36 | B18 | 0.00288 µg/mL

target: T2, hCD112R mFC recombinant protein; assay: FACS competition, hCD112R mFc on CHO CD112 cells
Method in brief: (§2)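 CHO cells overexpressing human CD112 were co-incubated 30 min at 4 °C with hCD112R mFc (5 μg/mL) and humanized anti-CD112R antibodies (from 100 μg/mL, 3-fold, 10 points). Bound fusion protein detected with anti-mouse IgG Fc secondary by flow cytometry; IC50 from four-parameter fit of MFI. COM701 served as positive control, anti-KLH hu-IgG4 as negative.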

Row | Binder | IC50
37 | B1 | 2.67 µg/mL
38 | B2 | 3.4 µg/mL
39 | B3 | 2.53 µg/mL
40 | B4 | 3.67 µg/mL
41 | B5 | 2.12 µg/mL
42 | B6 | 2.27 µg/mL
43 | B7 | 4.46 µg/mL
44 | B8 | 2.37 µg/mL
45 | B9 | 2.89 µg/mL
46 | B10 | 2.44 µg/mL
47 | B11 | 3.49 µg/mL
48 | B12 | 3.25 µg/mL
49 | B13 | 2.31 µg/mL
50 | B14 | 3.64 µg/mL
51 | B15 | 4.08 µg/mL
52 | B16 | 2.44 µg/mL
53 | B17 | 3.29 µg/mL
54 | B18 | 4.18 µg/mL

target: T2, hCD112R mFC recombinant protein; assay: ELISA, coated hCD112R-ECD-mFC; EC50 COM701/EC50 antibody
Method in brief: as §1

Row | Binder | Relative activity (%)
55 | B1 | 156%
56 | B2 | 136%
57 | B3 | 153%
58 | B4 | 147%
59 | B5 | 136%
60 | B6 | 127%
61 | B7 | 158%
62 | B8 | 153%
63 | B9 | 155%
64 | B10 | 142%
65 | B11 | 139%
66 | B12 | 145%
67 | B13 | 137%
68 | B14 | 171%
69 | B15 | 114%
70 | B16 | 229%
71 | B17 | 127%
72 | B18 | 136%

target: T2, hCD112R mFC recombinant protein; assay: FACS competition, hCD112R mFc on CHO CD112 cells; IC50 COM701/IC50 antibody
Method in brief: as §2

Row | Binder | Relative activity (%)
73 | B1 | 134%
74 | B2 | 105%
75 | B3 | 141%
76 | B4 | 97%
77 | B5 | 169%
78 | B6 | 157%
79 | B7 | 89.1%
80 | B8 | 151%
81 | B9 | 124%
82 | B10 | 146%
83 | B11 | 69%
84 | B12 | 74.1%
85 | B13 | 155%
86 | B14 | 66.2%
87 | B15 | 97.5%
88 | B16 | 146%
89 | B17 | 109%
90 | B18 | 95.1%
